Source: patent publication US20210380680A1 (ZLLP, published 2021)
Numbering of substitutions follows the chain as printed. Read-outs that look alike come from different tables or passages of the source.

Columns and labels:
[1] = molecular target: T1, human Claudin 18.2 (CLDN18.2) (human, UniProt P56856-2 1-261); experiment: FACS on CHO-CLDN18.2 cells
T1 construct: whole, on cells; recombinantly expressed on CHO, HEK293, NCI-N87, NUGC4 or PANC-1 cells; also called CHO-CLDN18.2

[2] = molecular target: T1, human Claudin 18.2 (CLDN18.2); experiment: cell-based or functional assay
[3] = molecular target: T1, human Claudin 18.2 (CLDN18.2); experiment: cell-based or functional assay; remark: listed apart in the source
[4] = molecular target: T1, human Claudin 18.2 (CLDN18.2); experiment: cell-based or functional assay; remark: listed apart in the source
[5] = molecular target: T1, human Claudin 18.2 (CLDN18.2); experiment: cell-based or functional assay; remark: listed apart in the source
[6] = molecular target: T1, human Claudin 18.2 (CLDN18.2); experiment: FACS on CHO-CLDN18.2 cells; remark: listed apart in the source
[7] = molecular target: T1, human Claudin 18.2 (CLDN18.2); experiment: cell-based or functional assay; remark: listed apart in the source
[8] = molecular target: T1, human Claudin 18.2 (CLDN18.2); experiment: FACS
[9] = molecular target: T1, human Claudin 18.2 (CLDN18.2); experiment: FACS on CHO-CLDN18.2 cells; remark: listed apart in the source
Protocol: Binding curves were generated to rank the binding affinities of hybridoma antibodies. Briefly, a total of 1×10⁵ CHO-CLDN18.2 cells for each well were seeded in 96-well plate and washed by FACS buffer (DPBS containing 2% FBS) twice. Cells were incubated by series diluted purified hybridoma antibodies for 1 h. After primary antibody incubation, cells were washed by FACS buffer for two times. […] FlowJo software was used for analysis. Data was plotted as the logarithm of antibody concentration versus mean fluorescence signals. Nonlinear regression analysis was performed by GraphPad Prism 6 (GraphPad Software) and EC50 values were calculated.

[10] = molecular target: T1, human Claudin 18.2 (CLDN18.2); experiment: FACS on CHO-18.2 cells @30 ug/ml
[11] = molecular target: T2, CLDN18.2 endogenously expressed on SNU601 gastric cancer cells (UniProt P56856-2 1-261); experiment: FACS on SNU601 cells
T2 construct: whole, on cells

[12] = molecular target: T3, CLDN18.2 endogenously expressed on SNU620 gastric cancer cells (UniProt P56856-2 1-261, limits assumed); experiment: FACS on SNU620 cells
T3 construct: whole, on cells; also called SU620

B1: chimeric 282A12F3 (xi282A12F3) (antibody, human IgG1, kappa, V domains shown)
VH: QVQLKESGPVLVQPSQTLSLTCTVAGFSLTSYNVYWVRQPPGKGLEWMGVIWNTGATRYNSTLKSRLSISKDTSKSQVFLKMNSLQTEDTATYYCARDSAMPAIPFAYWGQGTLVTVSS
VL: DIVMTQSPSSLAVSAGETVTINCKSSQSLFGSVRQKNYLAWYQQKPGQSPKLLIYLASTRESGVPDRFIGSGSGTDFTLTISSVQAEDLAKYYCQQYYDIPWTFGGGTKLELKR
notes: chimeric human IgG1
binding result [1]: binds

B2: 413H9F8-cp2 (antibody, V domains shown)
VH: DVQLVESGGGLVQPGGSLRLSCAASGFTFSSFGMHWVRQAPGKGLEWVAYISSGSSPIYYVDKLKGRFTISRDNAKNSLYLQMNSLRAEDTAVYYCARAGYAVRNALDYWGQGTLVTVSS
VL: EIVMTQSPPTLSLSPGERVTLSCKSSQSLLNVGNQKNYLAWYQQKPGQAPRLLIYGASTRESGIPARFSGSGSGTDFTLTISSLQPEDFAVYYCQNDLFYPLTFGGGTKVEIK
notes: humanized IgG; constant regions not specified
ADCC EC50, NUGC4-CLDN18.2, PBMC [2]: 0.0492 nM
% specific cytotoxicity @ 6.67 nM, NUGC4-CLDN18.2, PBMC [3]: 32%
ADCC EC50, NUGC4-CLDN18.2, PBMC [3]: 5.3 nM
% ADCC @ 6.67 nM, NCI-N87-CLDN18.2, FcR-TANK [4]: 13.2%
ADCC EC50, NCI-N87-CLDN18.2, FcR-TANK [4]: 0.24 nM
ADCC EC50, CHO-CLDN18.2, FcR-TANK [5]: 0.008 nM
EC50 [6]: 1.99 nM
CDC EC50, human serum, CHO-CLDN18.2 [7]: 1.13 nM

B3: 413H9F8-cp2-V2-DL (antibody, V domains shown)
VH: B2 VH
VL: B2 VL
ADCC EC50, NUGC4-CLDN18.2, PBMC [2]: 0.0146 nM
ADCC EC50, CHO-CLDN18.2, FcR-TANK [5]: 0.001 nM

B4: 413H9F8-cp2-MG-DL (antibody, V domains shown)
VH: B2 VH
VL: B2 VL
ADCC EC50, NUGC4-CLDN18.2, PBMC [2]: 0.0175 nM
ADCC EC50, CHO-CLDN18.2, FcR-TANK [5]: 0.0024 nM

B5: 413H9F8-VL-N31E (antibody, human IgG1, kappa, V domains shown)
VH: DVQLVESGGGSVQPGGSRRLSCAASGFTFSSFGMHWVRQAPEKGLEWVAYISSGSSPIYYVDKLKGRFTVSRDNPKNTLFLQMTSLRSEDTAMYYCARAGYAVRNALDYWGQGTSITVSS
VL: DIVMTQSPSSLSVSVGEKVTLSCKSSQSLLESGNQKNYLAWYQQKTGQPPKLLIYGASTRESGVPDRFIGSGSGTDFTLTISSVQAEDLAVYFCQNDLFYPLTFGAGTKLELKR
notes: chimeric human IgG1, PTM site removed
binding result [8]: binds

B6: 364D1A7-VL-N31E (antibody, human IgG1, kappa, V domains shown)
VH: DVQLVESGGGLVQPGGSRKLSCAASGFTFSSFGMHWVRQAPEKGLEWVAYISSGSGSIYYADTVKGRFTLSRDNPKNTLFLQMTSLRSEDTAIYYCATSYYYGNALEYWGQGTSVTVSS
VL: DVVLTQSPSSLTVTEGEKVSMSCKSSQSLFESGNQKNYLTWYQQKPGQTPTLLIYWASTRKSGVPDRFTGSGSGTDFTLTINTVQAEDLAVYYCQNVYSYPLTFGAGTKLDLKR
notes: as for B5
binding result [8]: binds

B7: 357B8F8 (mouse hybridoma antibody) (antibody, V domains shown)
VH: QVQLKESGPGLVAPSQSLSITCTVSGFSLTSYGVHWVRQPPGKGLEWLGVIWPGGNTNYNSALMSRLSISKDNSKSQVFLKMNSLQTDDTAMYYCARDRRLAMDYWGQGTSVTVSS
VL: DIVMTQSPSSLTVTAGEKVTMTCKSSQSLLNSGNQKNYLTWYQQKPGQPPKLLIYWASTRESGVPDRFTGSGSGTDFTLTISILQAEDLAVYYCQNDYSYPFTFGSGTKLEIK
notes: purified mouse IgG from hybridoma
EC50 [9]: 3.26 nM

B8: 364D1A7 (mouse hybridoma antibody) (antibody, V domains shown)
VH: B6 VH
VL: DVVLTQSPSSLTVTEGEKVSMSCKSSQSLFNSGNQKNYLTWYQQKPGQTPTLLIYWASTRKSGVPDRFTGSGSGTDFTLTINTVQAEDLAVYYCQNVYSYPLTFGAGTKLDLK
notes: as for B7
EC50 [9]: 5.22 nM

B9: 413H9F8 (mouse hybridoma antibody) (antibody, V domains shown)
VH: B5 VH
VL: DIVMTQSPSSLSVSVGEKVTLSCKSSQSLLNSGNQKNYLAWYQQKTGQPPKLLIYGASTRESGVPDRFIGSGSGTDFTLTISSVQAEDLAVYFCQNDLFYPLTFGAGTKLELK
notes: as for B7
EC50 [9]: 8.3 nM

B10: Ms175D10 (antibody, V domains shown)
VH: QVQLQQPGAELVRPGASVKLSCKASGYTFTSYWINWVKQRPGQGLEWIGNIYPSDSYTNYNQKFKDKATLTVDKSSSTAYMQLSSPTSEDSAVYYCTRSWRGNSFDYWGQGTTLTVSS
VL: B7 VL with T22S, I83S, L84V
EC50 [9]: 3.68 nM

B11: 282A12F3 (rat hybridoma antibody) (antibody, V domains shown)
VH: B1 VH
VL: DIVMTQSPSSLAVSAGETVTINCKSSQSLFGSVRQKNYLAWYQQKPGQSPKLLIYLASTRESGVPDRFIGSGSGTDFTLTISSVQAEDLAKYYCQQYYDIPWTFGGGTKLELK
notes: purified rat IgG from hybridoma
binding result [10]: binds
binding result [11]: binds

B12: chimeric 357B8F8 (antibody, human IgG1, kappa, V domains shown)
VH: B7 VH
VL: DIVMTQSPSSLTVTAGEKVTMTCKSSQSLLNSGNQKNYLTWYQQKPGQPPKLLIYWASTRESGVPDRFTGSGSGTDFTLTISILQAEDLAVYYCQNDYSYPFTFGSGTKLEIKR
notes: chimeric human IgG1
binding result [12]: no binding
